Results on two molecules are retold here after publication PMC9005727, “ComFC mediates transport and handling of single-stranded DNA during natural transformation” (Nature Communications, 2022).

The target of data set [1] is T1, ComFC (His6-ComFC) (Helicobacter pylori, UniProt O26008).
T1 construct: gene HP_1473; full length, 191 residues, His6 tag kept (six His codons added at 5' end; also called ComFC-6His), pET21a, E. coli BL21(DE3) Gold
T1 sequence (O26008 1-191): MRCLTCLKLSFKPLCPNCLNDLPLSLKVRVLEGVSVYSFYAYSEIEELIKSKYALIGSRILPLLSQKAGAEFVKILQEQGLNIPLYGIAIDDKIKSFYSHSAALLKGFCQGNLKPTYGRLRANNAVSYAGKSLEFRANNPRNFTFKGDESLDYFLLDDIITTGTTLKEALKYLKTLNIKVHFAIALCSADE
The data set can be described thus: differential scanning fluorimetry (SYPRO Orange). Type of data set: binding. Particulars: 20 mM Tris-Cl pH 7.5, 200 mM NaCl. (In general: In DSF a fluorescence change marks the thermal transition of the protein.)

Data set [2] deals with T2, ComFC WT (His6-ComFC) (Helicobacter pylori 26695, UniProt O26008 1-191).
T2 sequence: T1 sequence (O26008 1-191)
The data set can be described thus: EMSA; EMSA: 10 mM Tris-HCl pH 7.5, 50 mM KCl, 1 mM DTT, 0.1 ug/ul BSA, 4 °C, 30 min; native 6% TBE-PAGE. Particulars: protein: recombinant; tags: His6 (text: codons added at 5' end, also written ComFC-6His); label: 5'-Cy5.

Data set [3] deals with ComFC T165A (Helicobacter pylori 26695, UniProt O26008 1-191, T165A). In words: EMSA; no significant difference from WT. Particulars: protein: recombinant; label: 5'-Cy5. (In general: Mobility shift assays separate free from complexed probe on a gel.)

On to `Nc1ncnc2c1ncn2[C@@H]1O[C@H](COP(=O)(O)OP(=O)(O)O)[C@@H](O)[C@H]1O` [ADP], for which the dTm entry in data set [1] was “ADP addition also resulted in an increase in melting temperature”.

B1: XV2 62-mer ssDNA (ssDNA)
DNA: TGGGTGAACCTGCAGGTGGGCAAAGATGTCCTAGCAATGTAATCGTCAAGCTTTATGCCGTT
With B1, the “apparent K (half saturation)” value in data set [2] is 300 nM. Moreover, the binding result in data set [3] was “binds”.
